These results are taken from publication PMC8338941, “Puf6 primes 60S pre-ribosome nuclear export at low temperature”.

For series [1], the target named is T1, Puf6-PUM (Saccharomyces cerevisiae, UniProt Q04373 161-656). In words: fluorescence anisotropy; 27 C; buffer promoting tertiary contact; Anisotropy: 2.5 nM Cy5-RNA, 0.16 nM-20 uM protein, 27 C (stated for H68), buffer composition not in the material; FRET: 20 mM HEPES pH 7.4, 100 mM K+ (116 mM KCl in the supplement), 0-100 mM Mg2+. The conditions noted are these: protein: recombinant; (pET47-Puf6 (161-656)); label: Cy5 (sCy5); hairpin with GAAA tetraloop.

Series [2] concerns the target T1, Puf6-PUM. Put plainly: fluorescence anisotropy; buffer promoting tertiary contact; Anisotropy: 2.5 nM Cy5-RNA, 0.16 nM-20 uM protein, 27 C (stated for H68), buffer composition not in the material; FRET: 20 mM HEPES pH 7.4, 100 mM K+ (116 mM KCl in the supplement), 0-100 mM Mg2+. The conditions noted are these: protein: recombinant; (pET47-Puf6 (161-656)); label: Cy5 (sCy5; sCy3 in the FRET construct); three hairpins, H22-H88 kissing loop, GAAA tetraloop docking.

T1 sequence (Q04373 161-656): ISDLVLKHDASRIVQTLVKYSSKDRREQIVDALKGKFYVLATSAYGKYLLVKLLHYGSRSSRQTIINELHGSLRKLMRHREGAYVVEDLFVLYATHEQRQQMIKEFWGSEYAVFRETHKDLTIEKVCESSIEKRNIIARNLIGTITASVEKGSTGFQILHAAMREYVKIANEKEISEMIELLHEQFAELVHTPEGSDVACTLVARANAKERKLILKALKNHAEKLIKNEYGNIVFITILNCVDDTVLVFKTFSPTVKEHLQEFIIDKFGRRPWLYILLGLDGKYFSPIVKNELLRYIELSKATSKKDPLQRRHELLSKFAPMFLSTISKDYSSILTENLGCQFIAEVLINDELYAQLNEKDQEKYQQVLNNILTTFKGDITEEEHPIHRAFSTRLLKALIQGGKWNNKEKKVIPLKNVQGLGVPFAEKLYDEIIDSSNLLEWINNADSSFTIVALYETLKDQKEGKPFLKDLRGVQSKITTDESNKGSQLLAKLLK

Turning to UGAAGAAAUUCA (structured_RNA) [H68 RNA], the dissociation constant Kd in the series with Puf6-PUM [1] is roughly 10 µM.

B1: KL-TLGAAA (H68-H88-H22 RNA), Cy5 (structured_RNA)
RNA: UGAAGAAAUUCAAAAAAAAAGCUCGGAAUUUGAGCAAAAAAAAAAAACGGUGGUAAAUUCCAUCG
Take B1: in the series with Puf6-PUM [2], the Kd was roughly 0.125 µM.

Usually Kd stands for the constant that tells how readily two partners part at equilibrium.
